In publication PMC5986797, “Laminin heparin-binding peptides bind to several growth factors and enhance diabetic wound healing” (Nature Communications, 2018):

Experiments:
Conditions in all cases: both partners purified
[1] = target: T1, recombinant laminin LAMA3_(2928–3150) protein (human, UniProt Q16787 2928-3150); test: SPR; LAMA3 2928–3150 immobilised by amine coupling on a C1 chip (~1000 RU); GF flown at 20 μL/min in 0.01 M HEPES pH 7.4, 0.15 M NaCl, 0.005% surfactant P20; Langmuir binding kinetics
T1 construct: laminin subunit alpha-3, human, LG domain Ser2928-Cys3150 (linker domain and LG4 domain); also called laminin alpha 3 LG domain recombinant protein; source: HEK-293F, transfected, purified from culture medium (HisTrap, size-exclusion chromatography)
T1 sequence (looked up): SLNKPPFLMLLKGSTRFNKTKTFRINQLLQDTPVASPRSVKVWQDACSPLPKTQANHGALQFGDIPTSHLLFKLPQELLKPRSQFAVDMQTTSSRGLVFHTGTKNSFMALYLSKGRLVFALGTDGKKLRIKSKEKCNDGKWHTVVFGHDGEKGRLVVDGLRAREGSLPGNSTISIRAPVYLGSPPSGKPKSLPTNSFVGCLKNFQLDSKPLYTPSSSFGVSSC

[2] = target: T2, recombinant human laminin-111 (human, UniProt P25391 18-3075; P07942 22-1786; P11047 34-1609); test: ELISA; plates coated with 50 nM GF or chemokine in PBS; 10 nM laminin isoform in PBS added; bound laminin detected with anti-LAMC1 or anti-LAMA3 polyclonal antibody; A450 signals greater than 0.1 taken as binding; BSA-coated wells as control
T2 construct: laminin subunit alpha-1, human; chain told by the isoform's name; laminin subunit beta-1, human; laminin subunit gamma-1, human; source: bought: BioLamina (recombinant human, >95% purity); copies: + +

[3] = target: T3, recombinant human laminin-211 (human, UniProt P24043 23-3122; P07942 22-1786; P11047 34-1609); test: as above
T3 construct: laminin subunit alpha-2, human; chain told by the isoform's name; laminin subunit beta-1, human; laminin subunit gamma-1, human; source: bought: BioLamina (recombinant human, >95% purity); copies: + +

[4] = target: T4, recombinant human laminin-521 (human, UniProt O15230 36-3695; P55268 33-1798; P11047 34-1609); test: SPR; laminin-521 immobilised by amine coupling on a C1 chip (~2000 RU); GF flown at 20 μL/min in 0.01 M HEPES pH 7.4, 0.15 M NaCl, 0.005% surfactant P20; Langmuir binding kinetics
T4 construct: laminin subunit alpha-5, human; chain told by the isoform's name; laminin subunit beta-2, human; laminin subunit gamma-1, human; also called laminin isoform-521; source: bought: BioLamina (recombinant human, >95% purity); copies: + +

B1: platelet-derived growth factor PDGF-BB (ligand, human, UniProt P01127 82-190, looked up)
chain: SLGSLTIAEPAMIAECKTRTEVFEISRRLIDRTNANFLVWPPCVEVQRCSGCCNNRNVQCRPTQVQLRPVQVRKIEIVRKKPIFKKATVTLEDHLACKCETVAAARPVT
notes: platelet-derived growth factor subunit B, human, bought in its mature form; a homodimer by its name; source: bought: PeproTech; produced in Escherichia coli
- Kd [1]: 0.0102 µM
- binding result [2]: binds
- binding result [3]: binds
- Kd [4]: 0.0242 µM
